Laboratory results taken from patent US8389575B2, “Control of enzymatic peracid generation” (E.I. du Pont de Nemours and Company, priority 2008, dated 2013).

Key:
[1] = Peracetic acid production by Thermotoga maritima MSB8 perhydrolase, control by bicarbonate buffer concentration; assay type: biochemical; details: 100 mM triacetin
Experimental: A cell extract of a transformant expressing perhydrolase from Thermotoga maritima MSB8 (KLP18/pSW207) was prepared by passing a suspension of cell paste (20 wt % wet cell weight) in 0.05 M potassium phosphate buffer (pH 7.0) containing dithiothreitol (1 mM) twice through a French press having a working pressure of 16,000 psi (˜110 MPa). The crude extract was then centrifuged at 20,000×g to remove cellular debris, producing a clarified cell extract that was assayed for total soluble protein (Bicinchoninic Acid Kit for Protein Determination, Sigma Aldrich catalog #BCA1-KT). The clarified extract was heated for 20 min at 75° C., followed immediately by cooling in an ice/water bath. The resulting mixture was centrifuged to remove precipitated protein, and the supernatant collected and assayed for total soluble protein as before. […] The supernatant was frozen in dry ice and stored at −80° C.
Reactions (2 mL total volume) containing triacetin, hydrogen peroxide and heat-treated, centrifuged cell extract supernatant (prepared as described above) were run at 25° C. using sodium bicarbonate buffer concentrations listed in Tables 9 and 10. A control reaction for each reaction condition was run to determine the concentration of peracetic acid produced by chemical perhydrolysis of triacetin by hydrogen peroxide in the absence of added extract protein. Determination of the concentration of peracetic acid in the reaction mixtures was performed according to the method described by Karst et al., supra. The peracetic acid concentrations produced in 1 min, 5 min and 30 min using either 250 mM or 100 mM hydrogen peroxide are listed in Table 9 and Table 10.

[2] = Peracetic acid production and reaction pH over time, Thermotoga maritima MSB8 perhydrolase, selection of buffer, reactant and perhydrolase concentrations; assay type: biochemical; details: triacetin 100 mM
Experimental: Reactions (10 mL total volume) containing triacetin (100 mM), hydrogen peroxide (100 mM or 250 mM) and heat-treated, centrifuged cell extract supernatant (35 to 100 μg total heat-treated extract protein/mL, prepared as described in Example 13) prepared from an E. coli transformant expressing perhydrolase from Thermotoga maritima MSB8 (KLP18/pSW207) in sodium citrate (50 mM, pH 6.5) buffer, or in sodium bicarbonate buffer (1 mM to 5 mM, initial pH as indicated in Table 12), or in water without added buffer were run at 25° C. A control reaction for each reaction condition was run to determine the concentration of peracetic acid produced by chemical perhydrolysis of triacetin by hydrogen peroxide in the absence of added extract protein. Determination of the concentration of peracetic acid in the reaction mixtures was performed according to the method described by Karst et al., supra. The peracetic acid concentration produced at predetermined reaction times is listed in Table 11, and the corresponding reaction pH at each reaction time is listed in Table 12.

[3] = bicarbonate, 1 mM, H2O2 100 mM, total protein 75 μg/mL
[4] = bicarbonate, 1 mM, H2O2 100 mM, total protein 100 μg/mL
[5] = bicarbonate, 1 mM, H2O2 250 mM, total protein 35 μg/mL
[6] = bicarbonate, 1 mM, H2O2 250 mM, total protein 50 μg/mL
[7] = bicarbonate, 2.5 mM, H2O2 100 mM, total protein 50 μg/mL
[8] = bicarbonate, 5 mM, H2O2 100 mM, total protein 50 μg/mL
[9] = citrate, 50 mM, H2O2 100 mM, total protein 50 μg/mL
[10] = water (no buffer), H2O2 250 mM, total protein 75 μg/mL
[11] = water (no buffer), H2O2 250 mM, total protein 100 μg/mL

B1: Thermotoga maritima MSB8 perhydrolase: acetyl xylan esterase with perhydrolase activity from Thermotoga maritima MSB8 (SEQ ID NO: 16), cell extract of E. coli KLP18/pSW207 (protein, listed as Thermotoga maritima)
chain: MAFFDLPLEELKKYRPERYEEKDFDEFWEETLAESEKFPLDPVFERMESHLKTVEAYDVTFSGYRGQRIKGWLLVPKLEEEKLPCVVQYIGYNGGRGFPHDWLFWPSMGYICFVMDTRGQGSGWLKGDTPDYPEGPVDPQYPGFMTRGILDPRTYYYRRVFTDAVRAVEAAASFPQVDQERIVIAGGSQGGGIALAVSALSKKAKALLCDVPFLCHFRRAVQLVDTHPYAEITNFLKTHRDKEEIVFRTLSYFDGVNFAARAKIPALFSVGLMDNICPPSTVFAAYNYYAGPKEIRIYPYNNHEGGGSFQAVEQVKFLKKLFEKG
For B1, the “PAA (ppm), 1 min” value ([1]; NaHCO3 0 mM, initial pH 5.0, 1 min, 100 mM H2O2, 50 μg/mL heated extract total protein) was 125 ppm, the “PAA (ppm), 1 min” value ([1]; NaHCO3 0 mM, initial pH 5.0, 1 min, 250 mM H2O2, 50 μg/mL heated extract total protein) was 233 ppm and the “PAA (ppm), 5 min” value ([1]; NaHCO3 0 mM, initial pH 5.0, 5 min, 100 mM H2O2, 50 μg/mL heated extract total protein) was 121 ppm. For the same molecule, the “PAA (ppm), 5 min” value ([1]; NaHCO3 0 mM, initial pH 5.0, 5 min, 250 mM H2O2, 50 μg/mL heated extract total protein) was 290 ppm, the “PAA (ppm), 30 min” value ([1]; NaHCO3 0 mM, initial pH 5.0, 30 min, 100 mM H2O2, 50 μg/mL heated extract total protein) was 105 ppm and the “PAA (ppm), 30 min” value ([1]; NaHCO3 0 mM, initial pH 5.0, 30 min, 250 mM H2O2, 50 μg/mL heated extract total protein) was 289 ppm. For the same molecule, the “PAA (ppm), 1 min” value ([1]; NaHCO3 1.0 mM, initial pH 6.0, 1 min, 100 mM H2O2, 50 μg/mL heated extract total protein) was 238 ppm, the “PAA (ppm), 1 min” value ([1]; NaHCO3 1.0 mM, initial pH 6.0, 1 min, 250 mM H2O2, 50 μg/mL heated extract total protein) was 690 ppm and the “PAA (ppm), 5 min” value ([1]; NaHCO3 1.0 mM, initial pH 6.0, 5 min, 100 mM H2O2, 50 μg/mL heated extract total protein) was 388 ppm. The “PAA (ppm), 5 min” value ([1]; NaHCO3 1.0 mM, initial pH 6.0, 5 min, 250 mM H2O2, 50 μg/mL heated extract total protein) was 980 ppm, the “PAA (ppm), 30 min” value ([1]; NaHCO3 1.0 mM, initial pH 6.0, 30 min, 100 mM H2O2, 50 μg/mL heated extract total protein) was 361 ppm and the “PAA (ppm), 30 min” value ([1]; NaHCO3 1.0 mM, initial pH 6.0, 30 min, 250 mM H2O2, 50 μg/mL heated extract total protein) was 981 ppm. The “PAA (ppm), 1 min” value ([1]; NaHCO3 2.5 mM, initial pH 6.5, 1 min, 100 mM H2O2, 50 μg/mL heated extract total protein) was 319 ppm, the “PAA (ppm), 1 min” value ([1]; NaHCO3 2.5 mM, initial pH 6.5, 1 min, 250 mM H2O2, 50 μg/mL heated extract total protein) was 817 ppm and the “PAA (ppm), 5 min” value ([1]; NaHCO3 2.5 mM, initial pH 6.5, 5 min, 100 mM H2O2, 50 μg/mL heated extract total protein) was 755 ppm. The “PAA (ppm), 5 min” value ([1]; NaHCO3 2.5 mM, initial pH 6.5, 5 min, 250 mM H2O2, 50 μg/mL heated extract total protein) was 1758 ppm, the “PAA (ppm), 30 min” value ([1]; NaHCO3 2.5 mM, initial pH 6.5, 30 min, 100 mM H2O2, 50 μg/mL heated extract total protein) was 710 ppm and the “PAA (ppm), 30 min” value ([1]; NaHCO3 2.5 mM, initial pH 6.5, 30 min, 250 mM H2O2, 50 μg/mL heated extract total protein) was 1748 ppm. The “PAA (ppm), 1 min” value ([1]; NaHCO3 5.0 mM, initial pH 6.5, 1 min, 100 mM H2O2, 50 μg/mL heated extract total protein) was 330 ppm, the “PAA (ppm), 1 min” value ([1]; NaHCO3 5.0 mM, initial pH 6.5, 1 min, 250 mM H2O2, 50 μg/mL heated extract total protein) was 735 ppm and the “PAA (ppm), 5 min” value ([1]; NaHCO3 5.0 mM, initial pH 6.5, 5 min, 100 mM H2O2, 50 μg/mL heated extract total protein) was 972 ppm. For the same molecule, the “PAA (ppm), 5 min” value ([1]; NaHCO3 5.0 mM, initial pH 6.5, 5 min, 250 mM H2O2, 50 μg/mL heated extract total protein) was 1825 ppm, the “PAA (ppm), 30 min” value ([1]; NaHCO3 5.0 mM, initial pH 6.5, 30 min, 100 mM H2O2, 50 μg/mL heated extract total protein) was 1323 ppm and the “PAA (ppm), 30 min” value ([1]; NaHCO3 5.0 mM, initial pH 6.5, 30 min, 250 mM H2O2, 50 μg/mL heated extract total protein) was 2222 ppm. The “PAA (ppm), 1 min” value ([1]; NaHCO3 10 mM, initial pH 7.0, 1 min, 250 mM H2O2, 50 μg/mL heated extract total protein) was 804 ppm, the “PAA (ppm), 5 min” value ([1]; NaHCO3 10 mM, initial pH 7.0, 5 min, 250 mM H2O2, 50 μg/mL heated extract total protein) was 1951 ppm and the “PAA (ppm), 30 min” value ([1]; NaHCO3 10 mM, initial pH 7.0, 30 min, 250 mM H2O2, 50 μg/mL heated extract total protein) was 2698 ppm. For the same molecule, the “PAA (ppm), 1 min” value ([1]; NaHCO3 10 mM, initial pH 8.1, 1 min, 100 mM H2O2, 50 μg/mL heated extract total protein) was 407 ppm, the “PAA (ppm), 5 min” value ([1]; NaHCO3 10 mM, initial pH 8.1, 5 min, 100 mM H2O2, 50 μg/mL heated extract total protein) was 1075 ppm and the “PAA (ppm), 30 min” value ([1]; NaHCO3 10 mM, initial pH 8.1, 30 min, 100 mM H2O2, 50 μg/mL heated extract total protein) was 1763 ppm. The “PAA (ppm), 1 min” value ([1]; NaHCO3 25 mM, initial pH 8.1, 1 min, 100 mM H2O2, 50 μg/mL heated extract total protein) was 465 ppm, the “PAA (ppm), 1 min” value ([1]; NaHCO3 25 mM, initial pH 8.1, 1 min, 250 mM H2O2, 50 μg/mL heated extract total protein) was 848 ppm and the “PAA (ppm), 5 min” value ([1]; NaHCO3 25 mM, initial pH 8.1, 5 min, 100 mM H2O2, 50 μg/mL heated extract total protein) was 1369 ppm. For the same molecule, the “PAA (ppm), 5 min” value ([1]; NaHCO3 25 mM, initial pH 8.1, 5 min, 250 mM H2O2, 50 μg/mL heated extract total protein) was 2342 ppm, the “PAA (ppm), 30 min” value ([1]; NaHCO3 25 mM, initial pH 8.1, 30 min, 100 mM H2O2, 50 μg/mL heated extract total protein) was 2217 ppm and the “PAA (ppm), 30 min” value ([1]; NaHCO3 25 mM, initial pH 8.1, 30 min, 250 mM H2O2, 50 μg/mL heated extract total protein) was 3251 ppm. The “PAA (ppm), 1 min” value [2, 3] was 434 ppm, the “PAA (ppm), 5 min” value [2, 3] was 494 ppm and the “PAA (ppm), 30 min” value [2, 3] was 608 ppm. For the same molecule, the “PAA (ppm), 2 h” value [2, 3] was 673 ppm, the “PAA (ppm), 18 h” value [2, 3] was 576 ppm and the “PAA (ppm), 1 min” value [2, 4] was 449 ppm. For the same molecule, the “PAA (ppm), 5 min” value [2, 4] was 667 ppm, the “PAA (ppm), 30 min” value [2, 4] was 643 ppm and the “PAA (ppm), 2 h” value [2, 4] was 703 ppm. The “PAA (ppm), 18 h” value [2, 4] was 613 ppm, the “PAA (ppm), 1 min” value [2, 5] was 467 ppm and the “PAA (ppm), 5 min” value [2, 5] was 1047 ppm. The “PAA (ppm), 30 min” value [2, 5] was 1041 ppm, the “PAA (ppm), 2 h” value [2, 5] was 1014 ppm and the “PAA (ppm), 18 h” value [2, 5] was 917 ppm. For the same molecule, the “PAA (ppm), 1 min” value [2, 6] was 624 ppm, the “PAA (ppm), 5 min” value [2, 6] was 1060 ppm and the “PAA (ppm), 30 min” value [2, 6] was 1090 ppm. For the same molecule, the “PAA (ppm), 2 h” value [2, 6] was 1063 ppm, the “PAA (ppm), 18 h” value [2, 6] was 1021 ppm and the “PAA (ppm), 1 min” value [2, 7] was 256 ppm. The “PAA (ppm), 5 min” value [2, 7] was 722 ppm, the “PAA (ppm), 30 min” value [2, 7] was 976 ppm and the “PAA (ppm), 2 h” value [2, 7] was 887 ppm. For the same molecule, the “PAA (ppm), 18 h” value [2, 7] was 855 ppm, the “PAA (ppm), 1 min” value [2, 8] was 410 ppm and the “PAA (ppm), 5 min” value [2, 8] was 1088 ppm. For the same molecule, the “PAA (ppm), 30 min” value [2, 8] was 1496 ppm, the “PAA (ppm), 2 h” value [2, 8] was 1423 ppm and the “PAA (ppm), 18 h” value [2, 8] was 1419 ppm. The “PAA (ppm), 1 min” value [2, 9] was 409 ppm, the “PAA (ppm), 5 min” value [2, 9] was 892 ppm and the “PAA (ppm), 30 min” value [2, 9] was 2001 ppm. For the same molecule, the “PAA (ppm), 2 h” value [2, 9] was 2254 ppm, the “PAA (ppm), 18 h” value [2, 9] was 1937 ppm and the “PAA (ppm), 1 min” value [2, 10] was 512 ppm. The “PAA (ppm), 5 min” value [2, 10] was 535 ppm, the “PAA (ppm), 30 min” value [2, 10] was 533 ppm and the “PAA (ppm), 2 h” value [2, 10] was 472 ppm. The “PAA (ppm), 18 h” value [2, 10] was 448 ppm, the “PAA (ppm), 1 min” value [2, 11] was 576 ppm and the “PAA (ppm), 5 min” value [2, 11] was 668 ppm. For the same molecule, the “PAA (ppm), 30 min” value [2, 11] was 654 ppm, the “PAA (ppm), 2 h” value [2, 11] was 618 ppm and the “PAA (ppm), 18 h” value [2, 11] was 543 ppm.
